Laboratory results published in US20230212288A1 (published 2023).

Molecular target: human CD3 receptor complex (human, UniProt P07766 23-207; P09693 23-182; P04234 22-171)
Test: cell-based or functional assay

Chain of human CD3 receptor complex (P07766 23-207, chain 1 of 3): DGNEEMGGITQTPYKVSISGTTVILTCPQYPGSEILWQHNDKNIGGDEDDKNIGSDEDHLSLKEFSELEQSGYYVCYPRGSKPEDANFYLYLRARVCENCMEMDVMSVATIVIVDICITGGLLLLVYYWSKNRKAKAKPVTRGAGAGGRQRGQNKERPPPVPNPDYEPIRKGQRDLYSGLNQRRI
Chain of human CD3 receptor complex (P09693 23-182, chain 2 of 3): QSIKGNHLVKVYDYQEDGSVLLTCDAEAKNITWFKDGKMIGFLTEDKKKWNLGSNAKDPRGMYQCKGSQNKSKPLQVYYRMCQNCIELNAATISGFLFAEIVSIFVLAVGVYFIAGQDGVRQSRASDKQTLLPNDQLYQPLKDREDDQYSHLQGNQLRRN
Chain of human CD3 receptor complex (P04234 22-171, chain 3 of 3): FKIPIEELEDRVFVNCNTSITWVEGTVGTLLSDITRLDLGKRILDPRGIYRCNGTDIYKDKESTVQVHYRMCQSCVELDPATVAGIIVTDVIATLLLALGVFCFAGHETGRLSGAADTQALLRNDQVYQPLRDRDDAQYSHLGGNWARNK

Binder | Activity (EC50 for activation of Jurkat line cells, pM)
410_01_C03 (bispecific antibody) DIQLTQTPASLAVSLGQRATISCKASQSVDYDGDSYLNWYQQIPGQPPKLLIYDASNLVSGIPPRFSGSGSGTDFTLNIHPVEKVDAATYHCQQSTEDPWTFGGGTKLEIKGGSGGAMAQVQLQQWGAGLLKPSETLSLTCAVYGGSFSGYYWSWIRQPPGKGLEWIGEINHSGSTNYNPSLKSRVTISVDTSKNQFSLKLSSVTAADTAVYYCARATRNGAFDYWGQGTLVTVSSGGGGSGGGGSGGGASNFMLTQPHSVSESPGKTVTISCTRSSGRIASNYVQWYQQRPGSSPTTVIYEDNQRPSGVPDRFSGSIDSSSNSASLTISGLKTEDEADYYCQSYDSSNVVFGGGTQLTVLGQPAAAGGGGSQVQLQQSGAELVRPGSSVKISCKASGYAFSSYWMNWVKQRPGQGLEWIGQIWPGDGDTNYNGKFKGKATLTADESSSTAYMQLSSLASEDSAVYFCARRETTTVGRYYYAMDYWGQGTSVTVSSASAAVECPPCPAPPVAGPSVFLFPPKPKDTLMISRTPEVTCVVVDVSHEDPEVQFNWYVDGVEVHNAKTKPREEQFNSTFRVVSVLTVVHQDWLNGKEYKCKVSNKGLPAPIEKTISKTKGQPREPQVYTLPPSREEMTKNQVSLTCLVKGFYPSDIAVEWESNGQPENNYKTTPPMLDSDGSFFLYSKLTVDKSRWQQGNVFSCSVMHEALHNHYTQKSLSLSPGK | 3 pM
309_01_A02 (bispecific antibody) DIQLTQTPASLAVSLGQRATISCKASQSVDYDGDSYLNWYQQIPGQPPKLLIYDASNLVSGIPPRFSGSGSGTDFTLNIHPVEKVDAATYHCQQSTEDPWTFGGGTKLEIKGGSGGAMAEVQLVESGGGLVKPGGSLRLSCAASGFTFSSYSMNWVRQAPGKGLEWVSSISSSSSYIYYADSVKGRFTISRDNAKNSLYLQMNSLRAEDTAVYYCARSSRIQAGMDVWGQGTLVTVSSGGGGSGGGGSGGGASNFMLTQPHSVSESPGKTVTISCTRSSGTIASTYVQWYQQRPGSSPTTVIYEDNQRPSGVPDRFSGSIDSSSNSASLTISGLKTEDAADYFCQSYDSNNRVFGGGTKVTVLGQPAAAGGGGSQVQLQQSGAELVRPGSSVKISCKASGYAFSSYWMNWVKQRPGQGLEWIGQIWPGDGDTNYNGKFKGKATLTADESSSTAYMQLSSLASEDSAVYFCARRETTTVGRYYYAMDYWGQGTSVTVSSASAAVECPPCPAPPVAGPSVFLFPPKPKDTLMISRTPEVTCVVVDVSHEDPEVQFNWYVDGVEVHNAKTKPREEQFNSTFRVVSVLTVVHQDWLNGKEYKCKVSNKGLPAPIEKTISKTKGQPREPQVYTLPPSREEMTKNQVSLTCLVKGFYPSDIAVEWESNGQPENNYKTTPPMLDSDGSFFLYSKLTVDKSRWQQGNVFSCSVMHEALHNHYTQKSLSLSPGK | 7.9 pM
410_01_C09 (bispecific antibody) DIQLTQTPASLAVSLGQRATISCKASQSVDYDGDSYLNWYQQIPGQPPKLLIYDASNLVSGIPPRFSGSGSGTDFTLNIHPVEKVDAATYHCQQSTEDPWTFGGGTKLEIKGGSGGAMAEVQLVQSGAEVKKPGASVKVSCKASGYTFTSYYMYWVRQAPGQGLEWMGRINPNSGGTNYAQKFQGRVTMTRDTSISTAYMELSRLRSDDTAVYYCARPSRYSNYVDWGQGTLVTVSSGGGGSGGGGSGGGASNFMLTQPHSVSESPGKTVTISCTRSSGSIASNYVQWYQQRPGSSPTTVIYEDNQRPSGVPDRFSGSIDSSSNSASLTISGLKTEDEADYYCQSYDSRWIWVSGGGTKVTVLGQPAAAGGGGSQVQLQQSGAELVRPGSSVKISCKASGYAFSSYWMNWVKQRPGQGLEWIGQIWPGDGDTNYNGKFKGKATLTADESSSTAYMQLSSLASEDSAVYFCARRETTTVGRYYYAMDYWGQGTSVTVSSASAAVECPPCPAPPVAGPSVFLFPPKPKDTLMISRTPEVTCVVVDVSHEDPEVQFNWYVDGVEVHNAKTKPREEQFNSTFRVVSVLTVVHQDWLNGKEYKCKVSNKGLPAPIEKTISKTKGQPREPQVYTLPPSREEMTKNQVSLTCLVKGFYPSDIAVEWESNGQPENNYKTTPPMLDSDGSFFLYSKLTVDKSRWQQGNVFSCSVMHEALHNHYTQKSLSLSPGK | 2.2 pM
